In US20250388643A1, “GLUCAGON-LIKE PEPTIDE-2 COMPOSITIONS AND METHODS OF MAKING AND USING SAME” (Amunix Pharmaceuticals, Inc., priority 2011, published 2025):

T1: GLP-2 receptor (GLP2 G-protein coupled receptor) on transfected GLP2R cell line (Millipore, Cat #HTS164C) (human, UniProt O95838 1-553)
T1 sequence (looked up): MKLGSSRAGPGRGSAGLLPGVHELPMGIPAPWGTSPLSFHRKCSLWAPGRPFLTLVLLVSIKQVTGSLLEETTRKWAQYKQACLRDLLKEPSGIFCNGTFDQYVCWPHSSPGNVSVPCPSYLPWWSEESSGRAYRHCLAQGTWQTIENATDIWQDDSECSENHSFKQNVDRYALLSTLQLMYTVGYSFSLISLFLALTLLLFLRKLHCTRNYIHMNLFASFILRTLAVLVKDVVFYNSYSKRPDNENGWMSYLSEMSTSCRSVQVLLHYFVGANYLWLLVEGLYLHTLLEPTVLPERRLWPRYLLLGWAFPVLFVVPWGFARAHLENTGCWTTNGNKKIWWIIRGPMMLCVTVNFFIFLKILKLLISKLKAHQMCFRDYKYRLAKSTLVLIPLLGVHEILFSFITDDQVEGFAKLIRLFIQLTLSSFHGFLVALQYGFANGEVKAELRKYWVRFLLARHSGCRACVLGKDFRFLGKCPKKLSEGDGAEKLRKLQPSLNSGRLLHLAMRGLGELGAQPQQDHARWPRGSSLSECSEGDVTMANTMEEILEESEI

B1: GLP2-2G-XTEN_AE864 fusion protein (ligand)
chain: HGDGSFSDEMNTILDNLAARDFINWLIQTKITDGGSPAGSPTSTEEGTSESATPESGPGTSTEPSEGSAPGSPAGSPTSTEEGTSTEPSEGSAPGTSTEPSEGSAPGTSESATPESGPGSEPATSGSETPGSEPATSGSETPGSPAGSPTSTEEGTSESATPESGPGTSTEPSEGSAPGTSTEPSEGSAPGSPAGSPTSTEEGTSTEPSEGSAPGTSTEPSEGSAPGTSESATPESGPGTSTEPSEGSAPGTSESATPESGPGSEPATSGSETPGTSTEPSEGSAPGTSTEPSEGSAPGTSESATPESGPGTSESATPESGPGSPAGSPTSTEEGTSESATPESGPGSEPATSGSETPGTSESATPESGPGTSTEPSEGSAPGTSTEPSEGSAPGTSTEPSEGSAPGTSTEPSEGSAPGTSTEPSEGSAPGTSTEPSEGSAPGSPAGSPTSTEEGTSTEPSEGSAPGTSESATPESGPGSEPATSGSETPGTSESATPESGPGSEPATSGSETPGTSESATPESGPGTSTEPSEGSAPGTSESATPESGPGSPAGSPTSTEEGSPAGSPTSTEEGSPAGSPTSTEEGTSESATPESGPGTSTEPSEGSAPGTSESATPESGPGSEPATSGSETPGTSESATPESGPGSEPATSGSETPGTSESATPESGPGTSTEPSEGSAPGSPAGSPTSTEEGTSESATPESGPGSEPATSGSETPGTSESATPESGPGSPAGSPTSTEEGSPAGSPTSTEEGTSTEPSEGSAPGTSESATPESGPGTSESATPESGPGTSESATPESGPGSEPATSGSETPGSEPATSGSETPGSPAGSPTSTEEGTSTEPSEGSAPGTSTEPSEGSAPGSEPATSGSETPGTSESATPESGPGTSTEPSEGSAPG
B2: Glucagon-Y288: glucagon fused to unstructured polypeptide Y288 (protein)
chain: HSQGTFTSDYSKYLDSRRAQDFVQWLMNTGGEGSGEGSEGEGSEGSGEGEGSEGSGEGEGGSEGSEGEGGSEGSEGEGGSEGSEGEGSGEGSEGEGGSEGSEGEGSGEGSEGEGSEGGSEGEGGSEGSEGEGSGEGSEGEGGEGGSEGEGSEGSGEGEGSGEGSEGEGSEGSGEGEGSGEGSEGEGSEGSGEGEGSEGSGEGEGGSEGSEGEGSEGSGEGEGGEGSGEGEGSGEGSEGEGGGEGSEGEGSGEGGEGEGSEGGSEGEGGSEGGEGEGSEGSGEGEGSEGGSEGEGSEGGSEGEGSEGSGEGEGSEGSGE

Experiments:
[1] = biological target: T1, GLP-2 receptor (GLP2 G-protein coupled …); assay: cell-based or functional assay
[2] = Analytical size exclusion chromatography of XTEN fusion proteins with diverse payloads; assay type: physicochemical; settings: SEC
Protocol: Size exclusion chromatography analyses were performed on fusion proteins containing various therapeutic proteins and unstructured recombinant proteins of increasing length. […] Chromatogram profiles were monitored using OD214 nm and OD280 nm. Column calibration for all assays were performed using a size exclusion calibration standard from BioRad; the markers include thyroglobulin (670 kDa), bovine gamma-globulin (158 kDa), chicken ovalbumin (44 kDa), equine myoglobuin (17 kDa) and vitamin B12 (1.35 kDa). […] Based on the SEC analyses for all constructs evaluated, the apparent molecular weights, the apparent molecular weight factor (expressed as the ratio of apparent molecular weight to the calculated molecular weight) and the hydrodynamic radius (RH in nm) are shown in Table 23. […] Accordingly, it is expected that fusion proteins comprising growth and XTEN have reduced renal clearance, contributing to increased terminal half-life and improving the therapeutic or biologic effect relative to a corresponding un-fused biologic payload protein.

| Molecule | EC50 (calcium flux, FLIPR TETRA, GLP2R cell line) [1] | potency relative to GLP2-2G (calcium flux, GLP2R cell line) [1] | hydrodynamic radius [2] |
| --- | --- | --- | --- |
| B1 | 370 nM | ~2% | – |
| B2 | – | – | ≥ 7 nm |
